Experiments:
[1] = molecular target: AncSR1-LBD 184E (dimerization-interface mutant with a non-historical charge-repulsion mutation); assay: native MS
[2] = molecular target: AncSR1-LBD L180F/A181Y/M185K (dimerization-interface mutant with three historical substitutions); assay: native MS
[3] = molecular target: AncSR1-LBD fused to the CTE of AncSR2-LBD; assay: SEC-MALS

With “AncSR1-LBD 184E (dimerization-interface mutant with a non-historical charge-repulsion mutation) (domain or fragment)” the fold increase of Kd against AncSR1-LBD [1] was > 20 fold.
With “AncSR1-LBD L180F/A181Y/M185K (dimerization-interface mutant with three historical substitutions) (domain or fragment)” the fold increase of Kd against AncSR1-LBD [2] was > 20 fold.
“AncSR1-LBD fused to the CTE of AncSR2-LBD (domain or fragment)” gave a stoichiometry N [3] of 2.

From article PMC8168016
